Experiment [1] concerns the target T1, monovalent hVISTA-ECD (human VISTA extracellular domain with His tail) (human, UniProt Q9H7M9 33-193).
T1 construct: analyte flowed over captured antibody; also called huVISTA-His
The experiment in a line: SPR. The method, then: (§1) Binding of several preparations of each of the '029 progeny clones and of the parent '029 antibodies, formatted as IgG1.3 antibodies, to human VISTA at pH 6.0 and 7.4 was measured by Surface plasmon resonance (SPR). SPR analysis was performed to measure koff and KD binding affinity measurements for VISTA Abs at acidic and neutral pHs using a Biacore® T100 instrument (GE Healthcare). Protein A (ThermoFisher Scientific catalog #21181) was diluted to 20 ug/ml in 10 mM sodium acetate pH 4.5 and immobilized onto flow cells of a CM5 biosensor following the manufacturer's amine coupling protocol (GE Healthcare), targeting 2,000 RU immobilization density of Protein A per flow cell. SPR experiments were conducted at 37° C. using PBST (137 mM sodium chloride, 2.7 mM potassium chloride, 10 mM phosphate buffer, 0.05% Tween® 20) running buffer at pH 7.4 and 6.0. Antibodies were diluted to 25 nM in PBST pH 7.4, and were captured across active biosensor flow cells at 5 ul/min for 60 seconds. […] Two 15 second injections of 10 mM glycine pH 1.5 were used to regenerate the Protein A capture surface between assay cycles. Rate constants ka (kₒₙ) and kd (koff) were derived from reference flow cell and 0 nM blank-subtracted sensorgrams, and were fit to a 1:1 binding model in Biacore® T200 Evaluation Software v.2.0. The affinity constant, KD was calculated as the ratio of rate constants koff/kₒₙ for each VISTA antibody. […]

Experiment [2] has as its target T1, monovalent hVISTA-ECD (human VISTA …). The experiment in a line: SPR, pH 7.4. The method, then: as §1
A general note: Surface plasmon resonance follows binding to a sensor surface in real time, without labels.

The target is the same in experiment [3]. Description: SPR, pH 6.0. On the procedure:
as §1

Broadly, the Kd is a measure of binding affinity in units of concentration. The low end stands for tighter binding, the high end for weaker binding. What is called koff is a measure of how fast the partners let go of each other. Low readings indicate a long-lived complex, high ones a short-lived complex. By kon is commonly meant the rate constant with which the complex forms. A high value points to fast association.

T1 sequence (Q9H7M9 other isoform, or with tags, fused parts or gaps limits assumed): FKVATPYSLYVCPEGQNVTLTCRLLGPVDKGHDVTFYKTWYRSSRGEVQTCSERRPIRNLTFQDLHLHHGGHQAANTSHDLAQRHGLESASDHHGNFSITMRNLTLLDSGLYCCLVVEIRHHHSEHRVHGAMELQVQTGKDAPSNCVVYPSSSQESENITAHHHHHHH

B1: P1-064540 (41F11_VH_T28P/Y50W/S55E/A60H/Y100E) (antibody, V domains shown)
VH: QVQLVESGGGLVKPGGSLRLSCAASGFPFSDYYMSWIRQAPGKGLEWVSWISNSGEPIYYHDSVKGRFTISRDNAKNSLYLQMNSLRAEDTAVYYCARDLPGWEFDLWGRGTLVTVSS
VL: EIVLTQSPATLSLSPGERATLSCRASQSVSSYLAWYQQKPGQAPRLLIYDASNRATGIPARFSASGSGTDFTLTISSLEPEDFAVYYCQQRNNWPRTFGQGTKVEIK
notes: Kabat positions; also called P1-064540-1
Consider B1, for which the “KD ratio (pH 7.4/pH 6.0)” value in experiment [1] came to 1.06. In experiment [2], the Kd amounted to 0.285 nM, the koff was determined as 0.000158 s⁻¹ and the kon was determined as 553000 M⁻¹ s⁻¹. In experiment [3], the Kd was 0.268 nM, the koff worked out at 0.00192 s⁻¹ and the kon was 7.16e+06 M⁻¹ s⁻¹.

B2: P1-065320 (41F11_VH_L96EF100aG VK_A64G) (antibody, V domains shown)
VH: QVQLVESGGGLVKPGGSLRLSCAASGFTFSDYYMSWIRQAPGKGLEWVSYISNSGSPIYYADSVKGRFTISRDNAKNSLYLQMNSLRAEDTAVYYCARDEPGWYGDLWGRGTLVTVSS
VL: EIVLTQSPATLSLSPGERATLSCRASQSVSSYLAWYQQKPGQAPRLLIYDASNRATGIPARFSGSGSGTDFTLTISSLEPEDFAVYYCQQRNNWPRTFGQGTKVEIK
For the molecule B2, the “KD ratio (pH 7.4/pH 6.0)” value in experiment [1] turned out to be 45.5. In experiment [2], this molecule showed a Kd of 2540 nM, a dissociation rate constant (koff) of 0.0352 s⁻¹ and a kon of 13800 M⁻¹ s⁻¹. In experiment [3], this molecule registered a Kd of 55.8 nM, a koff of 0.0387 s⁻¹ and a kon of 694000 M⁻¹ s⁻¹.

B3: P1-065312 (41F11_VH_F27E VK_A64G) (antibody, V domains shown)
VH: QVQLVESGGGLVKPGGSLRLSCAASGETFSDYYMSWIRQAPGKGLEWVSYISNSGSPIYYADSVKGRFTISRDNAKNSLYLQMNSLRAEDTAVYYCARDLPGWYFDLWGRGTLVTVSS
VL: EIVLTQSPATLSLSPGERATLSCRASQSVSSYLAWYQQKPGQAPRLLIYDASNRATGIPARFSGSGSGTDFTLTISSLEPEDFAVYYCQQRNNWPRTFGQGTKVEIK
notes: Kabat positions; also called P1-065312-1
B3: in experiment [1], the “KD ratio (pH 7.4/pH 6.0)” value is 0.3. In experiment [2], this molecule had a Kd of 6.61 nM, a koff of 0.00131 s⁻¹ and a kon of 198000 M⁻¹ s⁻¹. In experiment [3], the Kd is 22.3 nM, the koff was 0.0449 s⁻¹ and the kon was determined as 2.01e+06 M⁻¹ s⁻¹.

B4: P1-065318 (41F11_VH_L96E VK A64G) (antibody, V domains shown)
VH: QVQLVESGGGLVKPGGSLRLSCAASGFTFSDYYMSWIRQAPGKGLEWVSYISNSGSPIYYADSVKGRFTISRDNAKNSLYLQMNSLRAEDTAVYYCARDEPGWYFDLWGRGTLVTVSS
VL: EIVLTQSPATLSLSPGERATLSCRASQSVSSYLAWYQQKPGQAPRLLIYDASNRATGIPARFSGSGSGTDFTLTISSLEPEDFAVYYCQQRNNWPRTFGQGTKVEIK
notes: Kabat positions; also called P1-065318-1
As to B4, the “KD ratio (pH 7.4/pH 6.0)” value in experiment [1] turned out to be 4.91. Moreover, in experiment [2], the affinity, expressed as Kd, was 38.5 nM; the koff stood at 0.0042 s⁻¹; the kon stood at 109000 M⁻¹ s⁻¹. In experiment [3], this molecule came in with a Kd of 7.84 nM, a koff of 0.0154 s⁻¹ and an on-rate constant (kon) of 1.96e+06 M⁻¹ s⁻¹.

B5: P1-065325 (41F11_VH_D31E/Y50W/S55E/A60H/Y100E VK_A64G) (antibody, V domains shown)
VH: QVQLVESGGGLVKPGGSLRLSCAASGFTFSEYYMSWIRQAPGKGLEWVSWISNSGEPIYYHDSVKGRFTISRDNAKNSLYLQMNSLRAEDTAVYYCARDLPGWEFDLWGRGTLVTVSS
VL: EIVLTQSPATLSLSPGERATLSCRASQSVSSYLAWYQQKPGQAPRLLIYDASNRATGIPARFSGSGSGTDFTLTISSLEPEDFAVYYCQQRNNWPRTFGQGTKVEIK
notes: Kabat positions; also called P1-065325-1
Consider B5, for which the “KD ratio (pH 7.4/pH 6.0)” value in experiment [1] was 1.42. Besides, in experiment [2], the Kd turned out to be 0.255 nM, the off-rate constant (koff) was 0.000158 s⁻¹ and the kon was determined as 618000 M⁻¹ s⁻¹. In experiment [3], this molecule yielded a Kd of 0.179 nM, a koff of 0.00143 s⁻¹ and a kon of 7.99e+06 M⁻¹ s⁻¹.

B6: P1-065332 (41F11_VH_T28P/Y50W/S55E/A60H/Y100E VK_A64G) (antibody, V domains shown)
VH: QVQLVESGGGLVKPGGSLRLSCAASGFPFSDYYMSWIRQAPGKGLEWVSWISNSGEPIYYHDSVKGRFTISRDNAKNSLYLQMNSLRAEDTAVYYCARDLPGWEFDLWGRGTLVTVSS
VL: EIVLTQSPATLSLSPGERATLSCRASQSVSSYLAWYQQKPGQAPRLLIYDASNRATGIPARFSGSGSGTDFTLTISSLEPEDFAVYYCQQRNNWPRTFGQGTKVEIK
notes: Kabat positions; also called P1-065332-1
With B6, the “KD ratio (pH 7.4/pH 6.0)” value in experiment [1] worked out at 1.11. In experiment [2], the dissociation constant (Kd) was found to be 0.456 nM, the dissociation rate constant (koff) was 0.000236 s⁻¹ and the kon is 517000 M⁻¹ s⁻¹. In experiment [3], the Kd is 0.409 nM, the koff stood at 0.00221 s⁻¹ and the kon is 5.41e+06 M⁻¹ s⁻¹.

B7: P1-065329 (41F11_VH_D31E/S35Y/Y50W/S55E/A60H/Y100E/F100aG VK_A64G) (antibody, V domains shown)
VH: QVQLVESGGGLVKPGGSLRLSCAASGFTFSEYYMYWIRQAPGKGLEWVSWISNSGEPIYYHDSVKGRFTISRDNAKNSLYLQMNSLRAEDTAVYYCARDLPGWEGDLWGRGTLVTVSS
VL: EIVLTQSPATLSLSPGERATLSCRASQSVSSYLAWYQQKPGQAPRLLIYDASNRATGIPARFSGSGSGTDFTLTISSLEPEDFAVYYCQQRNNWPRTFGQGTKVEIK
notes: Kabat positions; also called P1-065329-1
For the molecule B7, in experiment [1], the “KD ratio (pH 7.4/pH 6.0)” value amounted to 40.2. For the same molecule, in experiment [2], the Kd was determined as 478 nM, the koff was found to be 0.000858 s⁻¹ and the kon stood at 1800 M⁻¹ s⁻¹. In experiment [3], this molecule came in with a Kd of 11.9 nM, a koff of 0.00791 s⁻¹ and a kon of 663000 M⁻¹ s⁻¹.

B8: P1-065316 (41F11_VH_A60H VK A64G) (antibody, V domains shown)
VH: QVQLVESGGGLVKPGGSLRLSCAASGFTFSDYYMSWIRQAPGKGLEWVSYISNSGSPIYYHDSVKGRFTISRDNAKNSLYLQMNSLRAEDTAVYYCARDLPGWYFDLWGRGTLVTVSS
VL: EIVLTQSPATLSLSPGERATLSCRASQSVSSYLAWYQQKPGQAPRLLIYDASNRATGIPARFSGSGSGTDFTLTISSLEPEDFAVYYCQQRNNWPRTFGQGTKVEIK
notes: Kabat positions; also called P1-065316-1
As to B8, in experiment [1], the “KD ratio (pH 7.4/pH 6.0)” value was 0.28. For the same molecule, in experiment [2], binding was characterised by a dissociation constant (Kd) of 4.12 nM, the koff stood at 0.000995 s⁻¹ and the kon came to 242000 M⁻¹ s⁻¹. In experiment [3], this molecule showed a Kd of 14.5 nM, an off-rate constant (koff) of 0.0561 s⁻¹ and a kon of 3.86e+06 M⁻¹ s⁻¹.

B9: P1-065319 (41F11_VH_F100aG VK_A64G) (antibody, V domains shown)
VH: QVQLVESGGGLVKPGGSLRLSCAASGFTFSDYYMSWIRQAPGKGLEWVSYISNSGSPIYYADSVKGRFTISRDNAKNSLYLQMNSLRAEDTAVYYCARDLPGWYGDLWGRGTLVTVSS
VL: EIVLTQSPATLSLSPGERATLSCRASQSVSSYLAWYQQKPGQAPRLLIYDASNRATGIPARFSGSGSGTDFTLTISSLEPEDFAVYYCQQRNNWPRTFGQGTKVEIK
notes: Kabat positions; also called P1-065319-1
Turning to B9, the “KD ratio (pH 7.4/pH 6.0)” value in experiment [1] was 0.85. Further, in experiment [2], the affinity, expressed as Kd, was 24.6 nM; the koff is 0.00514 s⁻¹; the kon was 209000 M⁻¹ s⁻¹. Moreover, in experiment [3], binding was put at a Kd of 29.1 nM, the koff is 0.0385 s⁻¹ and the on-rate constant (kon) stood at 1.32e+06 M⁻¹ s⁻¹.
